Measured values taken from publication PMC11154713 (The Journal of Biological Chemistry, 2024).
Read-outs that look alike come from different tables or passages of the source. Bridges are numbered along the chain shown (N, C = ends). Where no end group is shown, it is not given here.

Tests used:
[1] = system: untransfected CHO-K1 cells; experiment: cAMP assay in untransfected CHO-K1 cells; assay type: cell-based; details: vodo-C1 30 µM; CP55940 and 2-AG 10 µM and 1 µM, alone or with 10 μM vBCL1-4
CB2R [2] = target: T1, CB2R (Homo sapiens, UniProt P34972); assay type: cell-based
CB2R [3] = target: T1, CB2R; experiment: cell-based; assay type: cell-based; details: for decrease of efficacy of 2-AG to recruit β-arrestin-2 / decrease of efficacy of CP55940 to recruit β-arrestin-2: single point, peptide 10 μM; for decrease of efficacy of 2-AG to recruit β-arrestin-2: 2-AG 1 μM; for decrease of efficacy of CP55940 to recruit β-arrestin-2: CP55940 1 μM
CB2R [4] = target: T1, CB2R; experiment: cAMP assay; assay type: cell-based; details: varying concentrations, inverse agonist control
CB2R [5] = target: T1, CB2R; experiment: cAMP assay in the absence of forskolin; assay type: cell-based; details: 10 µM peptide with varying CP55940, no forskolin
CB2R [6] = target: T1, CB2R; experiment: Radioligand displacement of [3H]-CP55940 at human CB2R membrane preparations; assay type: binding; details: peptide 100 nM and 10 μM; [3H]-CP55940 0.5 nM mixed with cold CP55940 4.5 nM

T1 sequence (P34972 whole entry): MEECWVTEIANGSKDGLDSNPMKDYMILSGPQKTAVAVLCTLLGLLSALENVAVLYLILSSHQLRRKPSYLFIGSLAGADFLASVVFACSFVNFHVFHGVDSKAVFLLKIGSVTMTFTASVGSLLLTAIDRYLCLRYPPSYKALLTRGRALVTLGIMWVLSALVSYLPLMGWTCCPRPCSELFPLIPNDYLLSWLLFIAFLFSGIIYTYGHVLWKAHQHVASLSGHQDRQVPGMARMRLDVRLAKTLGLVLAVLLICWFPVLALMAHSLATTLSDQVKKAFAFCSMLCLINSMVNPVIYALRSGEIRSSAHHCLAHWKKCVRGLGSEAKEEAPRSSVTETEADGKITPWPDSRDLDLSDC

Compound | changes in cAMP levels in untransfected cells [1] | EC50 fold shift relative to 2-AG (CB2R [2]; 10 μM peptide) [fold] | EC50 fold shift relative to WIN55,212-2 (CB2R [2]; 10 μM peptide) [fold] | decrease of efficacy of 2-AG to recruit β-arrestin-2 (CB2R [3]) | decrease of efficacy of CP55940 to recruit β-arrestin-2 (CB2R [3]) | further results
CCCCC/C=C\C/C=C\C/C=C\C/C=C\CCCC(=O)OC(CO)CO [2-AG, 2-arachidonoylglycerol, reference compound] | no changes in cAMP levels |  |  |  |  | EC50 (CB2R [2]; EC50 of agonist alone, agonist alone): 480 nM; EC50 (CB2R [3]): 600 nM
CCCCCCC(C)(C)c1ccc([C@@H]2C[C@H](O)CC[C@H]2CCCO)c(O)c1 [CP55940] | no changes in cAMP levels |  |  |  |  | 
SR144528 |  |  |  |  |  | effect on basal levels of CB2R activity (CB2R [4]): reduced the basal levels of CB2R activity
vBCL1: vodo-C1-inspired bicyclic loop peptide, loops 1 and 2, 10 residues, cyclized with 1,3,5-tris-(bromomethyl)-benzene (CGETCFTGKC; linker 1-5-10 via 1,3,5‑tris‑(bromomethyl)‑benzene (inferred)) |  | ~6 | ~6 | no or only minor (not significant) changes | no or only minor (not significant) changes | 
vBCL3: vodo-C1-inspired bicyclic loop peptide, loops 5 and 6, 15 residues, cyclized with 1,3,5-tris-(bromomethyl)-benzene (CEWPICTKNGDPLPC; linker 1-6-15 via 1,3,5‑tris‑(bromomethyl)‑benzene (inferred)) |  | ~6 | ~6 | no or only minor (not significant) changes | no or only minor (not significant) changes | intrinsic inverse agonist activity (CB2R [5]): lacks intrinsic inverse agonist activity; binding to the receptor (two-point displacement) (CB2R [6]): did not bind to the receptor; decrease of the efficacy of CP55940 (CB2R [2]; 10 μM peptide): ~40%; effect on basal activity (WIN55,212-2 curve) (CB2R [2]; 10 μM peptide): reduced the basal activity; effect on basal response (CP55940 curve) (CB2R [2]; 10 μM peptide): reduction in basal response
